Experiments:
Botrytis = test: Open-air field trials on grape (Example 4.2, AUDPC of % disease severity); type: in vivo, Botrytis cinerea; settings: for Disease compared with the biological standard program of Serenade and JMS Stylet Oil (AUDPC) / Disease caused by Botrytis compared to untreated check (AUDPC): both trials; for Disease caused by Botrytis compared to untreated check (AUDPC): FIGS. 7 and 8; for Disease compared with the chemical program of Miravis Prime and Switch (AUDPC): second trial
Experimental: RNAi compositions, each containing a dsRNA comprising a trigger sequence (GS730) described herein, were evaluated for ability to control Botrytis on grape in open-air field trials. Non-formulated and formulated compositions were tested. Non-formulated compositions were tank mixed with water and Silwet L-77 0.1% v/v. Formulated samples were formulated with RO water, propylene glycol, a linear alcohol ethoxylate, a lignosulfanate, sodium citrate dihydate, a polyacrylic acid polymer, two biocide compositions, anhydrous citric acid, and an antifoam, all of which are readily commercially available. Non-formulated and formulated GS 730 were each tested at concentrations of 50 g ai/ha and 100 g ai/ha. A standard biological program of Serenade 9.4 I/ha alternating with JMS Sylet Oil 1% v/v was used as a positive control. Chemical standards, Miravis Prime 392 g ai/ha ai and Switch 610 g ai/ha were applied to a second positive control group in alternating applications. An untreated group was used as a negative control
Positive controls were applied to grape plants at bloom, bunch closure, veraison, and 7-10 days before harvest. Test applications were made on the same timing as the positive controls with additional applications seven days after bloom, bunch closure, veraison, and 7-10 days before harvest. Disease state was evaluated over the course of three to four weeks, starting two days after the last application (Slide 3) or 18 days […] the last application. Percent Disease Severity was assessed and AUDPC was calculated in the same manner as noted in Example 4.1.

B. cinerea = test: Open-air field trial on strawberry (Example 4.4, AUDPC of % disease severity); type: in vivo, Botrytis cinerea; settings: FIG. 10
Experimental: RNAi compositions, each containing a dsRNA comprising a trigger sequence (GS349) described herein were evaluated for ability to control botrytis on strawberry in open-air field trials. All test samples were formulated as described in Example 4.3 and were tank mixed with standard adjuvant, Activator 90 0.25% v/v. Compositions were tested at concentrations of 10, 20, 30, and 40 g ai/ha. A biological standard program of Regalia 470 g ai/ha and Stylet Oil 6800 g ai/ha was used as a positive control. A chemical standard program of Captan 2240 g ai/ha and Switch 525 g ai/ha was used for a second positive control. An untreated check group was used as a negative control.
Compositions were applied to strawberry plants using a small plot sprayer delivering 50 gallons of water per acre. Five applications were made at weekly intervals. Disease state was evaluated beginning 6 days after the first application and ending 12 days after the fifth and final application. Percent Disease Severity was assessed and AUDPC was calculated in the same manner as noted in Example 4.1.

[1] = non-formulated, 50 and 100 g ai/ha

Molecule	Disease compared with the biological standard program of Serenade and JMS Stylet Oil (AUDPC) (Botrytis; formulated, 100 g ai/ha)	Disease caused by Botrytis compared to untreated check (AUDPC) (Botrytis; formulated, 100 g ai/ha)	Disease compared with the chemical program of Miravis Prime and Switch (AUDPC) (Botrytis; formulated, 100 g ai/ha)	Disease compared with the biological standard program of Serenade and JMS Stylet Oil (AUDPC) (Botrytis; [1])	Disease caused by Botrytis compared to untreated check (AUDPC) (Botrytis; [1])	Disease compared with the chemical program of Miravis Prime and Switch (AUDPC) (Botrytis; [1])	Disease compared with the chemical standard program (AUDPC) (B. cinerea; 10, 20, 30 and 40 g ai/ha, Captan 2240 g ai/ha and Switch 525 g ai/ha)	Disease compared with the biological standard program (AUDPC) (B. cinerea; 10, 20, 30 and 40 g ai/ha, Regalia 470 g ai/ha and Stylet Oil 6800 g ai/ha)	Disease caused by B. cinerea vs untreated check (AUDPC) (B. cinerea; formulated, Activator 90 0.25% v/v, 10, 20, 30 and 40 g ai/ha, five weekly applications)
GS730: dsRNA trigger targeting B. cinerea Bcsec15 (XM_024692064.1); trigger SEQ ID NO 19, RNA 31, reverse complement 43 (nucleic acid, listed as Botrytis cinerea) sense: UCAACGCAGUCUCCAAAGCUUUGGAUGAAUUCGAUAACCCGGAUGUUAUUCUGCAAACCAAGAAUGUGAUAGCAUUGUUCAUCCAAACAAUGGAGGGUUGGGGAUAUUCAGUUGCCAUAUUAGAUGCUUAUGUGCUUAAGCUUUUCUAUAGAUAUGCUGAUUUGUUAAAACGGAAAUUCAGCACAGAUUUUCAACAGAUUGUGUCUACCGAUGAAUACAUGCCUAUGCCUGUCAAUAGCGAAGAAGACUUUGAUAAAAUCAUUCAAGUCAGUUGGUAUGUUCCGGACAGACCGAAAGAAGAAUACACAUUCCCCGGUGUAUUACCAUUCUCCCAGAUGUACCCAAUGUGCUGUAUAGAUAUCAGAAAUUUCCUGAAUCGAUUCUACUUCAUAAUGGAUGAUCAUUUUCAACAGCCAAACAUUAUUGAUGAGACACUUAAGAAGUCGAUAGAUGAGCUUCUGUCUGAGGAUAUUUGUGA antisense: UCACAAAUAUCCUCAGACAGAAGCUCAUCUAUCGACUUCUUAAGUGUCUCAUCAAUAAUGUUUGGCUGUUGAAAAUGAUCAUCCAUUAUGAAGUAGAAUCGAUUCAGGAAAUUUCUGAUAUCUAUACAGCACAUUGGGUACAUCUGGGAGAAUGGUAAUACACCGGGGAAUGUGUAUUCUUCUUUCGGUCUGUCCGGAACAUACCAACUGACUUGAAUGAUUUUAUCAAAGUCUUCUUCGCUAUUGACAGGCAUAGGCAUGUAUUCAUCGGUAGACACAAUCUGUUGAAAAUCUGUGCUGAAUUUCCGUUUUAACAAAUCAGCAUAUCUAUAGAAAAGCUUAAGCACAUAAGCAUCUAAUAUGGCAACUGAAUAUCCCCAACCCUCCAUUGUUUGGAUGAACAAUGCUAUCACAUUCUUGGUUUGCAGAAUAACAUCCGGGUUAUCGAAUUCAUCCAAAGCUUUGGAGACUGCGUUGA	not statistically different	significantly reduced disease	comparable	not statistically different	significantly reduced disease	comparable	–	–	–
GS349: dsRNA trigger targeting B. cinerea CDC42 (XM_001545642.2); trigger SEQ ID NO 14, RNA 26, reverse complement 38 (nucleic acid, listed as Botrytis cinerea) sense: GUUGUCUUGUCUCGCUCAAGCUUGUCCUGUCUGGUCACUUUUCUUUCUGCCUGAUAAUCCAGACCUCGAAAAUAACCAAAAGAUUGGAAAUCGUUUGCUCAUCUUGCAUGCAUUAUUACUUUCCUGGAUCAAUCUCAUUCAACUCGUUCUCGUGCAUUUCAUUCAACCUCAACCCCUACUUUCAGUCAAUUCAAUUUAAUUCAAUCAUUCAAAUCUUUCAUUUCGCACACUUCACAUUCAACCAUCCUCUCUCAAUCAAAUAUCACCACCUCUCUUAUCGAACGUCAUUUUGCAUACAAUCAAUUCCUACAGACCGAGCGCAACUCGAUACAACCAUCGAAUAACUUCUCACACUUGCUUGUUGAAUUGAUUACUGAAGAAAGUGGAUUUCAAAGACCGAUUUUCCCCCUAGAUAUUCAAGAACGGCUUAUUCUUGUCUCGAGACAAAAC antisense: GUUUUGUCUCGAGACAAGAAUAAGCCGUUCUUGAAUAUCUAGGGGGAAAAUCGGUCUUUGAAAUCCACUUUCUUCAGUAAUCAAUUCAACAAGCAAGUGUGAGAAGUUAUUCGAUGGUUGUAUCGAGUUGCGCUCGGUCUGUAGGAAUUGAUUGUAUGCAAAAUGACGUUCGAUAAGAGAGGUGGUGAUAUUUGAUUGAGAGAGGAUGGUUGAAUGUGAAGUGUGCGAAAUGAAAGAUUUGAAUGAUUGAAUUAAAUUGAAUUGACUGAAAGUAGGGGUUGAGGUUGAAUGAAAUGCACGAGAACGAGUUGAAUGAGAUUGAUCCAGGAAAGUAAUAAUGCAUGCAAGAUGAGCAAACGAUUUCCAAUCUUUUGGUUAUUUUCGAGGUCUGGAUUAUCAGGCAGAAAGAAAAGUGACCAGACAGGACAAGCUUGAGCGAGACAAGACAAC	–	–	–	–	–	–	no significant difference	no significant difference	significantly reduced disease
